Assay results from patent US11325966.

What was measured:
Assay in all cases: cell-based or functional assay
92BR020 D325A (HIV-1) = target: 92BR020 D325A (HIV-1)
92BR020 N136A (HIV-1) = target: 92BR020 N136A (HIV-1)
[1] = target: 92BR020 N156A + N332A (HIV-1)
92BR020 Q328A (HIV-1) = target: 92BR020 Q328A (HIV-1)
[2] = target: HIV-1 Env of pseudovirus 1012_11_TC21_3257 (HIV-1)
[3] = target: HIV-1 Env of pseudovirus 191084 B7-19 (HIV-1)
[4] = target: HIV-1 Env of pseudovirus 191821_E6_1 (HIV-1)
[5] = target: HIV-1 Env of pseudovirus 191955_A11 (HIV-1)
[6] = target: HIV-1 Env of pseudovirus 231965.c01 (HIV-1)
[7] = target: HIV-1 Env of pseudovirus 3301.v1.c24 (HIV-1)
[8] = target: HIV-1 Env of pseudovirus 3365.v2.c2 (HIV-1)
[9] = target: HIV-1 Env of pseudovirus 3415.v1.c1 (HIV-1)
[10] = target: HIV-1 Env of pseudovirus 6041.v3.c23 (HIV-1)
[11] = target: HIV-1 Env of pseudovirus 62357_14_D3_4589 (HIV-1)
[12] = target: HIV-1 Env of pseudovirus 6240_08_TA5_4622 (HIV-1)
[13] = target: HIV-1 Env of pseudovirus AC10.0.29 (HIV-1)
[14] = target: HIV-1 Env of pseudovirus C3347.c11 (HIV-1)
[15] = target: HIV-1 Env of pseudovirus CAAN5342.A2 (HIV-1)
[16] = target: HIV-1 Env of pseudovirus CNE19 (HIV-1)
[17] = target: HIV-1 Env of pseudovirus CNE21 (HIV-1)
[18] = target: HIV-1 Env of pseudovirus CNE5 (HIV-1)
[19] = target: HIV-1 Env of pseudovirus CNE58 (HIV-1)
[20] = target: HIV-1 Env of pseudovirus Ce1172_H1 (HIV-1)
[21] = target: HIV-1 Env of pseudovirus Ce704809221_1B3 (HIV-1)
[22] = target: HIV-1 Env of pseudovirus Du422.1 (HIV-1)
[23] = target: HIV-1 Env of pseudovirus P1981_C5_3 (HIV-1)
[24] = target: HIV-1 Env of pseudovirus Q259.d2.17 (HIV-1)
[25] = target: HIV-1 Env of pseudovirus Q461.e2 (HIV-1)
[26] = target: HIV-1 Env of pseudovirus R3265.c06 (HIV-1)
[27] = target: HIV-1 Env of pseudovirus RHPA4259.7 (HIV-1)
[28] = target: HIV-1 Env of pseudovirus T250-4 (HIV-1)
[29] = target: HIV-1 Env of pseudovirus T255-34 (HIV-1)
[30] = target: HIV-1 Env of pseudovirus T278-50 (HIV-1)
[31] = target: HIV-1 Env of pseudovirus THRO4156.18 (HIV-1)
[32] = target: HIV-1 Env of pseudovirus WITO4160.33 (HIV-1)
[33] = target: HIV-1 Env of pseudovirus ZM197M.PB7 (HIV-1)
[34] = target: HIV-1 Env of pseudovirus ZM214M.PL15 (HIV-1)
[35] = target: HIV-1 Env of pseudovirus ZM247v1(Rev-) (HIV-1)
JR-CSF D325A (HIV-1) = JR-CSF D325A (HIV-1) (UniProt P20871)
JR-CSF I326A (HIV-1) = JR-CSF I326A (HIV-1) (UniProt P20871)
JR-CSF N386A (HIV-1) = JR-CSF N386A (HIV-1) (UniProt P20871)

354BG8 (antibody)
IC50 in TZM-bl assay (92BR020 D325A (HIV-1)): 0.006 µg/mL | IC50 in TZM-bl assay (92BR020 N136A (HIV-1)): 0.005 µg/mL | IC50 in TZM-bl assay [1]: > 50 µg/mL | IC50 in TZM-bl assay (92BR020 Q328A (HIV-1)): 0.018 µg/mL | IC50 in TZM-bl assay [2]: 0.011 µg/mL | IC80 in TZM-bl assay [2]: 0.047 µg/mL | IC50 in TZM-bl assay [3]: 0.026 µg/mL | IC80 in TZM-bl assay [3]: 0.108 µg/mL | IC50 in TZM-bl assay [4]: > 10 µg/mL | IC80 in TZM-bl assay [4]: > 10 µg/mL | IC50 in TZM-bl assay [5]: > 10 µg/mL | IC80 in TZM-bl assay [5]: > 10 µg/mL | IC50 in TZM-bl assay [6]: > 10 µg/mL | IC80 in TZM-bl assay [6]: > 10 µg/mL | IC50 in TZM-bl assay [7]: 0.018 µg/mL | IC80 in TZM-bl assay [7]: 0.049 µg/mL | IC50 in TZM-bl assay [8]: 0.057 µg/mL | IC80 in TZM-bl assay [8]: 0.2 µg/mL | IC50 in TZM-bl assay [9]: > 10 µg/mL | IC80 in TZM-bl assay [9]: > 10 µg/mL | IC50 in TZM-bl assay [10]: > 10 µg/mL | IC80 in TZM-bl assay [10]: > 10 µg/mL | IC50 in TZM-bl assay [11]: > 10 µg/mL | IC80 in TZM-bl assay [11]: > 10 µg/mL | IC50 in TZM-bl assay [12]: 0.038 µg/mL | IC80 in TZM-bl assay [12]: 0.131 µg/mL | IC50 in TZM-bl assay [13]: 0.015 µg/mL | IC80 in TZM-bl assay [13]: 0.043 µg/mL | IC50 in TZM-bl assay [14]: > 10 µg/mL | IC80 in TZM-bl assay [14]: > 10 µg/mL | IC50 in TZM-bl assay [15]: 0.005 µg/mL | IC80 in TZM-bl assay [15]: 0.019 µg/mL | IC50 in TZM-bl assay [16]: 0.075 µg/mL | IC80 in TZM-bl assay [16]: > 10 µg/mL | IC50 in TZM-bl assay [17]: 0.047 µg/mL | IC80 in TZM-bl assay [17]: 0.124 µg/mL | IC50 in TZM-bl assay [18]: > 10 µg/mL | IC80 in TZM-bl assay [18]: > 10 µg/mL | IC50 in TZM-bl assay [19]: 0.165 µg/mL | IC80 in TZM-bl assay [19]: 0.476 µg/mL | IC50 in TZM-bl assay [20]: 0.019 µg/mL | IC80 in TZM-bl assay [20]: 0.083 µg/mL | IC50 in TZM-bl assay [21]: 0.084 µg/mL | IC80 in TZM-bl assay [21]: 0.395 µg/mL | IC50 in TZM-bl assay [22]: 0.047 µg/mL | IC80 in TZM-bl assay [22]: 0.113 µg/mL | IC50 in TZM-bl assay [23]: 0.004 µg/mL | IC80 in TZM-bl assay [23]: 0.013 µg/mL | IC50 in TZM-bl assay [24]: > 10 µg/mL | IC80 in TZM-bl assay [24]: > 10 µg/mL | IC50 in TZM-bl assay [25]: > 10 µg/mL | IC80 in TZM-bl assay [25]: > 10 µg/mL | IC50 in TZM-bl assay [26]: > 10 µg/mL | IC80 in TZM-bl assay [26]: > 10 µg/mL | IC50 in TZM-bl assay [27]: 0.023 µg/mL | IC80 in TZM-bl assay [27]: 0.083 µg/mL | IC50 in TZM-bl assay [28]: 0.002 µg/mL | IC80 in TZM-bl assay [28]: 0.005 µg/mL | IC50 in TZM-bl assay [29]: > 10 µg/mL | IC80 in TZM-bl assay [29]: > 10 µg/mL | IC50 in TZM-bl assay [30]: 1.71 µg/mL | IC80 in TZM-bl assay [30]: > 10 µg/mL | IC50 in TZM-bl assay [31]: > 10 µg/mL | IC80 in TZM-bl assay [31]: > 10 µg/mL | IC50 in TZM-bl assay [32]: 0.111 µg/mL | IC80 in TZM-bl assay [32]: 0.828 µg/mL | IC50 in TZM-bl assay [33]: > 10 µg/mL | IC80 in TZM-bl assay [33]: > 10 µg/mL | IC50 in TZM-bl assay [34]: 0.415 µg/mL | IC80 in TZM-bl assay [34]: 2.97 µg/mL | IC50 in TZM-bl assay [35]: 0.042 µg/mL | IC80 in TZM-bl assay [35]: 0.146 µg/mL | IC50 in TZM-bl assay (JR-CSF D325A (HIV-1)): 0.005 µg/mL | IC50 in TZM-bl assay (JR-CSF I326A (HIV-1)): 0.005 µg/mL | IC50 in TZM-bl assay (JR-CSF N386A (HIV-1)): 0.012 µg/mL
